Test results published in US20240358850A1.
One block for each binder: values may come before it.

Target: denatured collagen type-IV
Assay: cell-based or functional assay

- inhibition of B16F10 melanoma cell adhesion to denatured collagen type-IV coated wells (antibody 100 µg/ml): > 40%
B1: Humanized anti-HU177 antibody (antibody, human IgG1, kappa, V domains shown)
VH: QVTLKESGPALVKPTQTLTLTCTFSGFSLSTPGMGVWWIRQPPGKALEWLADIWWDDNKYTNPSLKSRLTISKDTSKNQVVLTMTNMDPVDTATYYCARRANYGNPYYAQDYWGQGTTVTVSS
VL: DIVMTQTPLSLPVTPGEPASISCRSSQSIVSSWGNTYLEWYLQKPGQSPQLLIYKVSNRFSGVPDRFSGSGSGTDFTLKISRVEAEDVGVYYCFQGSHVPWTFGQGTKVEIKR

- inhibition of B16F10 melanoma cell adhesion to denatured collagen type-IV coated wells (antibody 100 µg/ml): > 40%
B2: MMAE-conjugated anti-HU177 antibody (Anti-HU177-MMAE) (antibody, V domains shown)
VH: B1 VH
VL: B1 VL
modifications: MMAE conjugated with the Perkit Antibody MMAE Conjugation Kit; conjugation sites and chain not stated
